Data from patent US20220153862A1 (CSPC MEGALITH BIOPHARMACEUTICAL, published 2022).

T1: human Trophoblast cell surface antigen 2 (TROP2) (human, UniProt P09758 27-274, limits assumed)
T1 construct: Analyte in the SPR experiments and immunogen; also called human TROP2
T1 sequence: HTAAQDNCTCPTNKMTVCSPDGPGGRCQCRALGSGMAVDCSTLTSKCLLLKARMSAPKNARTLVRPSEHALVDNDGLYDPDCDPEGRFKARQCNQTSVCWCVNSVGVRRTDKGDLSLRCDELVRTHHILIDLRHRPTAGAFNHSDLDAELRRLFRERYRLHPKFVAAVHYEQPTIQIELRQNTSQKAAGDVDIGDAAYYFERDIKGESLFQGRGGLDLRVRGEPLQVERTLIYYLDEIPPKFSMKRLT


Each binder was assayed against T1, human Trophoblast cell surface antigen … (assay: SPR affinity ranking, human TROP2).

| Binder | Kd [nM] | koff [s⁻¹] | kon [M⁻¹ s⁻¹] |
| --- | --- | --- | --- |
| HC2/LC5 (antibody, human IgG1, kappa, V domains shown, Humanized anti-TROP2 antibody) VH: QVQLVQSGAEVKKPGASVKVSCKASGYTFTDYSINWVRQAPGQGLEWMGVISTYYGDASYNQKFKGRVTMTRDTSTSTVYMELSSLRSEDTAVYYCARYGDGYNQFDYWGQGTLVTVSS VL: DIQMTQSPSSLSASVGDRVTITCRVSESVDSYGNNFMHWYQQKPGKAPKLLIYRASNLESGVPSRFSGSGSGTDFTFTISSLQPEDIATYYCQQSYEDPYTFGGGTKLEIKR | 0.052 | 7.38e-05 | 1.42e+06 |
| HC5/LC5 (antibody, human IgG1, kappa, V domains shown, Humanized anti-TROP2 antibody) VH: EVQLVQSGAEVKKPGESLKISCKGSGYTFTDYSINWVRQMPGKGLEWMGVISTYYGDASYNQKFKGQVTISADKSISTAYLQWSSLKASDTAMYYCARYGDGYNQFDYWGQGTLVTVSS VL: DIQMTQSPSSLSASVGDRVTITCRVSESVDSYGNNFMHWYQQKPGKAPKLLIYRASNLESGVPSRFSGSGSGTDFTFTISSLQPEDIATYYCQQSYEDPYTFGGGTKLEIKR | 0.238 | 0.000338 | 1.42e+06 |
| HC4/LC2 (antibody, human IgG1, kappa, V domains shown, Humanized anti-TROP2 antibody) VH: QVQLVQSGAEVKKPGSSVKVSCKASGYTFTDYSINWVRQAPGQGLEWMGVISTYYGDASYNQKFKGRVTITADESTSTAYMELSSLRSEDTAVYYCARYGDGYNQFDYWGQGTLVTVSS VL: DVVMTQSPLSLPVTLGQPASISCRVSESVDSYGNNFMHWFQQRPGQSPRRLIYRASNLESGVPDRFSGSGSGTDFTLKISRVEAEDVGVYYCQQSYEDPYTFGGGTKVEIKR | 5.34 | 0.000984 | 184000 |
| HC2/LC3 (antibody, human IgG1, kappa, V domains shown, Humanized anti-TROP2 antibody) VH: QVQLVQSGAEVKKPGASVKVSCKASGYTFTDYSINWVRQAPGQGLEWMGVISTYYGDASYNQKFKGRVTMTRDTSTSTVYMELSSLRSEDTAVYYCARYGDGYNQFDYWGQGTLVTVSS VL: DIVMTQSPLSLPVTPGEPASISCRVSESVDSYGNNFMHWYLQKPGQSPQLLIYRASNLESGVPDRFSGSGSGTDFTLKISRVEAEDVGVYYCQQSYEDPYTFGGGTKVEIKR | 0.104 | 0.000141 | 1.36e+06 |
| HC2/LC1 (antibody, human IgG1, kappa, V domains shown, Humanized anti-TROP2 antibody) VH: QVQLVQSGAEVKKPGASVKVSCKASGYTFTDYSINWVRQAPGQGLEWMGVISTYYGDASYNQKFKGRVTMTRDTSTSTVYMELSSLRSEDTAVYYCARYGDGYNQFDYWGQGTLVTVSS VL: DIVMTQSPDSLAVSLGERATINCRVSESVDSYGNNFMHWYQQKPGQPPKLLIYRASNLESGVPDRFSGSGSGTDFTLTISSLQAEDVAVYYCQQSYEDPYTFGQGTKLEIKR | 0.0375 | 5.78e-05 | 1.54e+06 |
| HC2/LC4 (antibody, human IgG1, kappa, V domains shown, Humanized anti-TROP2 antibody) VH: QVQLVQSGAEVKKPGASVKVSCKASGYTFTDYSINWVRQAPGQGLEWMGVISTYYGDASYNQKFKGRVTMTRDTSTSTVYMELSSLRSEDTAVYYCARYGDGYNQFDYWGQGTLVTVSS VL: EIVLTQSPATLSLSPGERATLSCRVSESVDSYGNNFMHWYQQKPGQAPRLLIYRASNLESGIPARFSGSGSGTDFTLTISSLEPEDFAVYYCQQSYEDPYTFGGGTKVEIKR | 0.0957 | 0.00014 | 1.46e+06 |
| HC3/LC3 (antibody, human IgG1, kappa, V domains shown, Humanized anti-TROP2 antibody) VH: QVQLVQSGAEVKKPGASVKVSCKASGYTFTDYSINWVRQAPGQRLEWMGVISTYYGDASYNQKFKGRVTITRDTSASTAYMELSSLRSEDTAVYYCARYGDGYNQFDYWGQGTLVTVSS VL: DIVMTQSPLSLPVTPGEPASISCRVSESVDSYGNNFMHWYLQKPGQSPQLLIYRASNLESGVPDRFSGSGSGTDFTLKISRVEAEDVGVYYCQQSYEDPYTFGGGTKVEIKR | 0.107 | 0.000159 | 1.49e+06 |
| HC4/LC4 (antibody, human IgG1, kappa, V domains shown, Humanized anti-TROP2 antibody) VH: QVQLVQSGAEVKKPGSSVKVSCKASGYTFTDYSINWVRQAPGQGLEWMGVISTYYGDASYNQKFKGRVTITADESTSTAYMELSSLRSEDTAVYYCARYGDGYNQFDYWGQGTLVTVSS VL: EIVLTQSPATLSLSPGERATLSCRVSESVDSYGNNFMHWYQQKPGQAPRLLIYRASNLESGIPARFSGSGSGTDFTLTISSLEPEDFAVYYCQQSYEDPYTFGGGTKVEIKR | 0.052 | 8.88e-05 | 1.71e+06 |
| HC1/LC3 (antibody, human IgG1, kappa, V domains shown, Humanized anti-TROP2 antibody) VH: QVQLVQSGAEVKKPGASVKVSCKASGYTFTDYSINWVRQAPGQGLEWMGVISTYYGDASYNQKFKGRVTMTTDTSTSTAYMELRSLRSDDTAVYYCARYGDGYNQFDYWGQGTMVTVSS VL: DIVMTQSPLSLPVTPGEPASISCRVSESVDSYGNNFMHWYLQKPGQSPQLLIYRASNLESGVPDRFSGSGSGTDFTLKISRVEAEDVGVYYCQQSYEDPYTFGGGTKVEIKR | 0.121 | 0.000196 | 1.62e+06 |
| HC4/LC3 (antibody, human IgG1, kappa, V domains shown, Humanized anti-TROP2 antibody) VH: QVQLVQSGAEVKKPGSSVKVSCKASGYTFTDYSINWVRQAPGQGLEWMGVISTYYGDASYNQKFKGRVTITADESTSTAYMELSSLRSEDTAVYYCARYGDGYNQFDYWGQGTLVTVSS VL: DIVMTQSPLSLPVTPGEPASISCRVSESVDSYGNNFMHWYLQKPGQSPQLLIYRASNLESGVPDRFSGSGSGTDFTLKISRVEAEDVGVYYCQQSYEDPYTFGGGTKVEIKR | 0.0916 | 0.000178 | 1.95e+06 |
| HC3/LC5 (antibody, human IgG1, kappa, V domains shown, Humanized anti-TROP2 antibody) VH: QVQLVQSGAEVKKPGASVKVSCKASGYTFTDYSINWVRQAPGQRLEWMGVISTYYGDASYNQKFKGRVTITRDTSASTAYMELSSLRSEDTAVYYCARYGDGYNQFDYWGQGTLVTVSS VL: DIQMTQSPSSLSASVGDRVTITCRVSESVDSYGNNFMHWYQQKPGKAPKLLIYRASNLESGVPSRFSGSGSGTDFTFTISSLQPEDIATYYCQQSYEDPYTFGGGTKLEIKR | 0.114 | 0.000151 | 1.32e+06 |
| HC4/LC1 (antibody, human IgG1, kappa, V domains shown, Humanized anti-TROP2 antibody) VH: QVQLVQSGAEVKKPGSSVKVSCKASGYTFTDYSINWVRQAPGQGLEWMGVISTYYGDASYNQKFKGRVTITADESTSTAYMELSSLRSEDTAVYYCARYGDGYNQFDYWGQGTLVTVSS VL: DIVMTQSPDSLAVSLGERATINCRVSESVDSYGNNFMHWYQQKPGQPPKLLIYRASNLESGVPDRFSGSGSGTDFTLTISSLQAEDVAVYYCQQSYEDPYTFGQGTKLEIKR | 0.0457 | 7.74e-05 | 1.69e+06 |
| HC1/LC4 (antibody, human IgG1, kappa, V domains shown, Humanized anti-TROP2 antibody) VH: QVQLVQSGAEVKKPGASVKVSCKASGYTFTDYSINWVRQAPGQGLEWMGVISTYYGDASYNQKFKGRVTMTTDTSTSTAYMELRSLRSDDTAVYYCARYGDGYNQFDYWGQGTMVTVSS VL: EIVLTQSPATLSLSPGERATLSCRVSESVDSYGNNFMHWYQQKPGQAPRLLIYRASNLESGIPARFSGSGSGTDFTLTISSLEPEDFAVYYCQQSYEDPYTFGGGTKVEIKR | 0.0911 | 0.000126 | 1.38e+06 |
| HC3/LC1 (antibody, human IgG1, kappa, V domains shown, Humanized anti-TROP2 antibody) VH: QVQLVQSGAEVKKPGASVKVSCKASGYTFTDYSINWVRQAPGQRLEWMGVISTYYGDASYNQKFKGRVTITRDTSASTAYMELSSLRSEDTAVYYCARYGDGYNQFDYWGQGTLVTVSS VL: DIVMTQSPDSLAVSLGERATINCRVSESVDSYGNNFMHWYQQKPGQPPKLLIYRASNLESGVPDRFSGSGSGTDFTLTISSLQAEDVAVYYCQQSYEDPYTFGQGTKLEIKR | 0.067 | 0.00011 | 1.65e+06 |
| HC2/LC2 (antibody, human IgG1, kappa, V domains shown, Humanized anti-TROP2 antibody) VH: QVQLVQSGAEVKKPGASVKVSCKASGYTFTDYSINWVRQAPGQGLEWMGVISTYYGDASYNQKFKGRVTMTRDTSTSTVYMELSSLRSEDTAVYYCARYGDGYNQFDYWGQGTLVTVSS VL: DVVMTQSPLSLPVTLGQPASISCRVSESVDSYGNNFMHWFQQRPGQSPRRLIYRASNLESGVPDRFSGSGSGTDFTLKISRVEAEDVGVYYCQQSYEDPYTFGGGTKVEIKR | 865 | 0.0251 | 24900 |
| HC3/LC2 (antibody, human IgG1, kappa, V domains shown, Humanized anti-TROP2 antibody) VH: QVQLVQSGAEVKKPGASVKVSCKASGYTFTDYSINWVRQAPGQRLEWMGVISTYYGDASYNQKFKGRVTITRDTSASTAYMELSSLRSEDTAVYYCARYGDGYNQFDYWGQGTLVTVSS VL: DVVMTQSPLSLPVTLGQPASISCRVSESVDSYGNNFMHWFQQRPGQSPRRLIYRASNLESGVPDRFSGSGSGTDFTLKISRVEAEDVGVYYCQQSYEDPYTFGGGTKVEIKR | 10.4 | 0.00177 | 169000 |
| HC3/LC4 (antibody, human IgG1, kappa, V domains shown, Humanized anti-TROP2 antibody) VH: QVQLVQSGAEVKKPGASVKVSCKASGYTFTDYSINWVRQAPGQRLEWMGVISTYYGDASYNQKFKGRVTITRDTSASTAYMELSSLRSEDTAVYYCARYGDGYNQFDYWGQGTLVTVSS VL: EIVLTQSPATLSLSPGERATLSCRVSESVDSYGNNFMHWYQQKPGQAPRLLIYRASNLESGIPARFSGSGSGTDFTLTISSLEPEDFAVYYCQQSYEDPYTFGGGTKVEIKR | 0.14 | 0.000192 | 1.37e+06 |
| HC5/LC3 (antibody, human IgG1, kappa, V domains shown, Humanized anti-TROP2 antibody) VH: EVQLVQSGAEVKKPGESLKISCKGSGYTFTDYSINWVRQMPGKGLEWMGVISTYYGDASYNQKFKGQVTISADKSISTAYLQWSSLKASDTAMYYCARYGDGYNQFDYWGQGTLVTVSS VL: DIVMTQSPLSLPVTPGEPASISCRVSESVDSYGNNFMHWYLQKPGQSPQLLIYRASNLESGVPDRFSGSGSGTDFTLKISRVEAEDVGVYYCQQSYEDPYTFGGGTKVEIKR | 0.182 | 0.000266 | 1.46e+06 |
| HC5/LC2 (antibody, human IgG1, kappa, V domains shown, Humanized anti-TROP2 antibody) VH: EVQLVQSGAEVKKPGESLKISCKGSGYTFTDYSINWVRQMPGKGLEWMGVISTYYGDASYNQKFKGQVTISADKSISTAYLQWSSLKASDTAMYYCARYGDGYNQFDYWGQGTLVTVSS VL: DVVMTQSPLSLPVTLGQPASISCRVSESVDSYGNNFMHWFQQRPGQSPRRLIYRASNLESGVPDRFSGSGSGTDFTLKISRVEAEDVGVYYCQQSYEDPYTFGGGTKVEIKR | 1.54 | 0.000402 | 261000 |
